Laboratory results as given in IntAct's records for PubMed 16830178.

B1: Protein GRIP (Arabidopsis thaliana (Mouse-ear cress)), Q8S2T0 (parent)
chain: MSEDKESDVVGEEEESHVIKEDKELNDASNETLTENGDQLLQMIAELRLENDFLRSQFEGLKDEVAQGRSLQKAEQVEADSAQLKQLQEQVASLSREIDVEKQTRVAAEQALEHLREAYSEADAKSQEYSSKFSQVEQKLDQEIKERDEKYADLDAKFTRLHKRAKQRIQEIQKEKDDLDARFREVNETAERASSQHSSMQQELERTRQQANEALKAMDAERQQLRSANNKLRDTIEELRGSLQPKENKIETLQQSLLDKDQILEDLKKQLQAVEERKQIAVTELSAKHQKNLEGLEAQVVDALSERDKAAETISSLQVLLAEKESKIAEMEAAATGEAARLRAAAETLKGELAHLKSENEKEKETWEASCDALKSKLEIAESNYLQAEIEVAKMRSQLGSEMSMQTQILSTKDAELKGAREEINRLQSEFSSYKIRAHALLQKKDMELAAAKDSEQIKSLEEALKEAEKEVYLVSAERDRAQQDLQSALASLEKELEERAGALKDASEQIKSLEVKLDSTVARNQAEKQAWEEDLRVLEETWRRRCEALTAQNEASPAEGIEKELENAKLRNKRMKEEHESVRELADRLIEEKDREISRLVDEMTNLRKSMESKPVWNKSPSQVHHYGNNNTESQQQDVSNLSTSAAEHQILILARQQAQREEELAQTQRHILALQEEIEELERENRLHSQQEAVLKTELREMERKQKREGVDMTYLKNVILKLLETGEVEALLPVVGMLLQFSPEEIQKCQQAYHSSTTAATTTEATPSPASEGSGLSVFSRFSFS
partner: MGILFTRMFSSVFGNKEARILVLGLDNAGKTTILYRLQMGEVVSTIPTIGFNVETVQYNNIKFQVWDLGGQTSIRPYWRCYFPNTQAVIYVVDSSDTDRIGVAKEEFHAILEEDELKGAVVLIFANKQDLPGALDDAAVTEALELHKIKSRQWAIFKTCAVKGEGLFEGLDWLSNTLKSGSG
B2: ADP-ribosylation factor 3 (Arabidopsis thaliana (Mouse-ear cress)), P40940 (parent)
chain: B1 partner
partner: B1 chain

Variants of: B1
Details: with arf3_arath ARF3, P40940

| Variant | effect of a mutation on the interaction |
| --- | --- |
| Y717A | decreasing interaction |
| K719A | decreasing interaction |

Variants of: B2
Details: with grip_arath GRIP, Q8S2T0

| Variant | effect of a mutation on the interaction |
| --- | --- |
| F51G | decreasing interaction |
| Y81G | decreasing interaction |

Variants of: B2
Details: with grip_arath GRIP

| Variant | effect of a mutation on the interaction |
| --- | --- |
| F51G | disrupting interaction |
| Y81G | disrupting interaction |
